From patent publication US20170073395A1 (Pfizer, published 2017)

Experiments:
[1] = molecular target: T1, RAGE (cognate target of the anti-RAGE antibodies; species not stated at the place) (Homo sapiens (Human), UniProt Q15109 23-342); assay: Biacore SPR
T1 construct: not shown: Carrier or tag of the soluble construct
Description: ABS leads in human IgG1 format were analyzed for specificity and stability.
(§1) Biacore analysis was performed using the T-200 biosensor, series S CM5 chips, an amine-coupling kit, 10 mM sodium acetate immobilization buffer at pH 5.0, 10×HBS-P running buffer and NaOH for regeneration (GE Healthcare). Kinetic assay conditions were established to minimize the influence of mass transfer, avidity and rebinding events. A predefined ligand immobilization program was set up to immobilize approximately 100 Response Units (RU) of IgG on the chip. Purified target proteins were diluted in HBS-P running buffer to a range of final concentrations and injected at 50 μl/min for 3 mins. Dissociation was allowed to proceed for 10 min followed by a 5 sec pulse of 20 mM NaOH for regeneration of the chip surface. All sensorgrams were analyzed using the Biacore T-200 evaluation software.

[2] = molecular target: T1, RAGE (cognate target of the anti-RAGE …); assay: HTRF epitope competition, IgG titrated; competitor parental IgG (Par-RAGE)
[3] = molecular target: T1, RAGE (cognate target of the anti-RAGE …); assay: Biacore T-200 SPR, IgG immobilised (~100 RU), purified target protein injected
Description: as §1

mTRKB = molecular target: T2, mTRKB (mouse, UniProt P15209 32-429, limits assumed); assay: Biacore specificity assay: IgG immobilised (about 300 RU), antigen injected at 500 nM
T2 construct: Non-target panel protein
T2 sequence (P15209 32-429 limits assumed): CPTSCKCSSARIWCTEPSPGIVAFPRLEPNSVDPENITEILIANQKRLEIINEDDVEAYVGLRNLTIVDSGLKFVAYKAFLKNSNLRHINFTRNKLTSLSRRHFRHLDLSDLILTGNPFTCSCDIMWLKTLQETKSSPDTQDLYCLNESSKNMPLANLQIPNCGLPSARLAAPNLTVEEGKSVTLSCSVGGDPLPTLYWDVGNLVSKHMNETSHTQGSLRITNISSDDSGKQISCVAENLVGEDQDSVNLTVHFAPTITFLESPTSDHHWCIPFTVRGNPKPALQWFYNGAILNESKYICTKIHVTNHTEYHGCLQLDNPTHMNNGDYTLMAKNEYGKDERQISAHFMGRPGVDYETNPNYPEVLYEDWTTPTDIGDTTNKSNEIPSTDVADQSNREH
Description: (§2) Biacore specificity analyses were performed using the T-200 biosensor, series S CM5 chips, an amine-coupling kit, 10 mM sodium acetate immobilization buffer at pH 5.0, 10× HBS-P running buffer and NaOH for regeneration (GE Healthcare). A predefined ligand (IgG) immobilization program was set up to immobilize approximately 300 Response Units (RU) on the flow cell for each IgG to be tested. For Anti-RAGE and anti-A33, a panel of fully-purified recombinant target and non-target antigens were diluted in HBS-P running buffer to a final concentration of 500 nM. Four groups of antigens were examined, including: cell membrane proteins (mTRKB, hTRKB, mEGFR, hEGFR, hFceR1, hIL-21R, mICAM1, mICAM2, hICAM1, hCD33, hLAMP-1, hLOX-1, and), soluble signaling molecules (mTNFa, hVEGF, hCXCL13) and albumins (BSA, HSA and MSA). These proteins were injected at 50 μl/min for 3 min, followed by a 5 sec pulse of 20 mM NaOH for regeneration of the chip surface. For pTau, a series of pTau-derived phosphorylated and non-phosphorylated peptides were flowed, as in Shih et al.³. All sensorgrams were analyzed using the Biacore T-200 evaluation software.

mEGFR = molecular target: T3, mEGFR (mouse, UniProt Q01279 25-647, limits assumed); assay: as above
T3 construct: Non-target panel protein
Description: as §2

hEGFR = molecular target: T4, hEGFR (human, UniProt P00533 25-645, limits assumed); assay: as above
T4 construct: Non-target panel protein
Description: as §2

hFceR1 = molecular target: T5, hFceR1 (human, UniProt P12319 26-205); assay: as above
T5 construct: Non-target panel protein
T5 sequence (alpha): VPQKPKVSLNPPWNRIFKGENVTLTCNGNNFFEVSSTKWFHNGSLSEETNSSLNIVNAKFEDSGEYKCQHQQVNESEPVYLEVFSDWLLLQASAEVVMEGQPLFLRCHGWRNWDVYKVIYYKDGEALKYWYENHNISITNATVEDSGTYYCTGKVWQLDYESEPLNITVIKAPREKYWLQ
Description: as §2

hIL-21R = molecular target: T6, hIL-21R (human, UniProt Q9HBE5 20-232, limits assumed); assay: as above
T6 construct: Non-target panel protein
T6 sequence (Q9HBE5 20-232 limits assumed): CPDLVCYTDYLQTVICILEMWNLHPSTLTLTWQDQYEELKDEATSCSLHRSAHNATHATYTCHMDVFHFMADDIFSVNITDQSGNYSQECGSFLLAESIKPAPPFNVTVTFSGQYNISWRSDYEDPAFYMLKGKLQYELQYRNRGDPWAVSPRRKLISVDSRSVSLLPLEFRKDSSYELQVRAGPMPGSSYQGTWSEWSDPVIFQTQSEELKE
Description: as §2

mICAM1 = molecular target: T7, mICAM1 (mouse, UniProt P13597 28-485, limits assumed); assay: as above
T7 construct: Non-target panel protein
T7 sequence (P13597 28-485 limits assumed): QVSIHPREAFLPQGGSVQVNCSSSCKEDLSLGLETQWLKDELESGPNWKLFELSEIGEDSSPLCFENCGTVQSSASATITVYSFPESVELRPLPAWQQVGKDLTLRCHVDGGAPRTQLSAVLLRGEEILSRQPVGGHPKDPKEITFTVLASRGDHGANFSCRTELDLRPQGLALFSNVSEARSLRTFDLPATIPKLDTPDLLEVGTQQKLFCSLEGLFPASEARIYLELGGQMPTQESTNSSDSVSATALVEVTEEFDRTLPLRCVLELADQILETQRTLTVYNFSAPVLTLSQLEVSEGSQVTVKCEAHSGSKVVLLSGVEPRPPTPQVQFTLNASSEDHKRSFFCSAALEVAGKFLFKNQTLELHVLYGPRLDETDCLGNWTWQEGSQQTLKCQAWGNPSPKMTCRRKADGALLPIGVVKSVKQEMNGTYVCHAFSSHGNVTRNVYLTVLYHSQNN
Description: as §2

hICAM1 = molecular target: T8, hICAM1 (human, UniProt P05362 28-480, limits assumed); assay: as above
T8 construct: Non-target panel protein
T8 sequence (P05362 28-480 limits assumed): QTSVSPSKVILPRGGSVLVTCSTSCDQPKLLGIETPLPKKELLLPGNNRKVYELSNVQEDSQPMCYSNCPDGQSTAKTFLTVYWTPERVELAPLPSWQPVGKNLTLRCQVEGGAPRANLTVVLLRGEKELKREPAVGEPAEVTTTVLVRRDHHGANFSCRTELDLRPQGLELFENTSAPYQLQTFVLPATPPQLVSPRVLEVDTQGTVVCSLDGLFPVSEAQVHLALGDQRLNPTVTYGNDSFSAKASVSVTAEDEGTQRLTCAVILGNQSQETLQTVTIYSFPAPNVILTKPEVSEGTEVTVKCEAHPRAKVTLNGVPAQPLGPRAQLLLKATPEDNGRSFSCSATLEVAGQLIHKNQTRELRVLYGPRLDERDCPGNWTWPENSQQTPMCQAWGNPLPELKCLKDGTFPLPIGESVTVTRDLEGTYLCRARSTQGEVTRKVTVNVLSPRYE
Description: as §2

hCD33 = molecular target: T9, hCD33 (human, UniProt P20138 18-259, limits assumed); assay: as above
T9 construct: Non-target panel protein
T9 sequence (P20138 18-259 limits assumed): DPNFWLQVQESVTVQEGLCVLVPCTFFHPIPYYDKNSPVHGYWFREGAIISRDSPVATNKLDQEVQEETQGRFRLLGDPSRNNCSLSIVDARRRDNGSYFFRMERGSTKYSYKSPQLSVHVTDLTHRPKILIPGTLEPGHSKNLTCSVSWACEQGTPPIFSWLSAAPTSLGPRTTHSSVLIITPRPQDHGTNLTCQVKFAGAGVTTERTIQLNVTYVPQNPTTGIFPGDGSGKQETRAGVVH
Description: as §2

hLAMP-1 = molecular target: T10, hLAMP-1 (human, UniProt P11279 29-382, limits assumed); assay: as above
T10 construct: Non-target panel protein
T10 sequence (looked up): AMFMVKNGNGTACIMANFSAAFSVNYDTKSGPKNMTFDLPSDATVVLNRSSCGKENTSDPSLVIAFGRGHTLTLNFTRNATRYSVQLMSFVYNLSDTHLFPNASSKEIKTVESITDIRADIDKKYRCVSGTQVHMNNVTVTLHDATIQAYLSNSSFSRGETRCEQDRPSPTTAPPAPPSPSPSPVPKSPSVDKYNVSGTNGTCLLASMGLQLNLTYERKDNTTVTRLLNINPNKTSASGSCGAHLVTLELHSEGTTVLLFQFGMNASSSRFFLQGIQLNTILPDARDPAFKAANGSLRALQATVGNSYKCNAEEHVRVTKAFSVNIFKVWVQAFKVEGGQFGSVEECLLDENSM
Description: as §2

HSA = molecular target: T11, HSA (UniProt P02768 25-609); assay: as above
T11 construct: Non-target panel protein (albumins)
T11 sequence (P02768 25-609): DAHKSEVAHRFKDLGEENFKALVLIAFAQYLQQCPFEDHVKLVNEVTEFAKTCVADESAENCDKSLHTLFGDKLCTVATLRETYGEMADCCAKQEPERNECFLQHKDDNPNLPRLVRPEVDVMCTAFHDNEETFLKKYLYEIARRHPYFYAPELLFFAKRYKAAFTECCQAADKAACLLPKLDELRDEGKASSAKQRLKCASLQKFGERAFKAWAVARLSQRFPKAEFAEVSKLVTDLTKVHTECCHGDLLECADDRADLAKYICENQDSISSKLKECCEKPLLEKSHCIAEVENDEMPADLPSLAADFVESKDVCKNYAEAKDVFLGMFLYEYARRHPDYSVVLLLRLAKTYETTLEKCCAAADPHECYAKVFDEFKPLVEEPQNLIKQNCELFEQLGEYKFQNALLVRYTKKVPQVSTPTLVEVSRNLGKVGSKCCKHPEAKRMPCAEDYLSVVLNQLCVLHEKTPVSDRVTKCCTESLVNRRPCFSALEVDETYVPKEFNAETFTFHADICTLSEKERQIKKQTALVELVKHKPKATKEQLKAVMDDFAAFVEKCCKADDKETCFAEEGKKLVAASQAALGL
Description: as §2

MSA = molecular target: T12, MSA (UniProt P07724 25-608); assay: as above
T12 construct: Non-target panel protein (albumins)
Description: as §2

mRAGE = molecular target: T13, mRAGE (mouse, UniProt Q62151 24-342, limits assumed); assay: Biacore specificity assay: IgG immobilised (about 300 RU), antigen m-RAGE-fc injected at 500 nM
T13 construct: also called mouse RAGE
T13 sequence (Q62151 24-342 limits assumed): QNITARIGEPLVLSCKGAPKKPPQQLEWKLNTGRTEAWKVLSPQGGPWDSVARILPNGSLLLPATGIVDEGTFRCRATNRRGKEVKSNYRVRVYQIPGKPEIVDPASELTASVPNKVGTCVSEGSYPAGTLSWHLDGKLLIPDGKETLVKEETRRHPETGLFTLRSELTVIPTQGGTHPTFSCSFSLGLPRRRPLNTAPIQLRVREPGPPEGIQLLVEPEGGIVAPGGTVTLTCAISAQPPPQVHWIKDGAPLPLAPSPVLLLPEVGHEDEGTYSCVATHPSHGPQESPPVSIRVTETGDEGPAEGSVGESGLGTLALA
Description: as §2

T1 sequence (Q15109 23-342 limits assumed): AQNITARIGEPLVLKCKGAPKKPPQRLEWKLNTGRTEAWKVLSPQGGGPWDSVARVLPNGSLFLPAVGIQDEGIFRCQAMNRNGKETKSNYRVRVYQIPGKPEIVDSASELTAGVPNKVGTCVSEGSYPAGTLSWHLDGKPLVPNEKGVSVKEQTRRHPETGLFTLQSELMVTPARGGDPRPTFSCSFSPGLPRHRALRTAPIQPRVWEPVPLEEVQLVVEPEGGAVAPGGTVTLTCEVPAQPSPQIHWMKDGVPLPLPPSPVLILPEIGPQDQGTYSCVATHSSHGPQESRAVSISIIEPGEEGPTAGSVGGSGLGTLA

fold affinity improvement over Par-RAGE [1]: ~2 fold
IC50 [2]: 5.8 nM
Kd [3]: 17 nM
binding result (mTRKB): no binding (tested: 500 nM)
binding result (mEGFR): no binding (tested: 500 nM)
binding result (hEGFR): no binding (tested: 500 nM)
binding result (hFceR1): no binding (tested: 500 nM)
binding result (hIL-21R): no binding (tested: 500 nM)
binding result (mICAM1): no binding (tested: 500 nM)
binding result (hICAM1): no binding (tested: 500 nM)
binding result (hCD33): no binding (tested: 500 nM)
binding result (hLAMP-1): no binding (tested: 500 nM)
binding result (HSA): no binding (tested: 500 nM)
binding result (MSA): no binding (tested: 500 nM)
binding result (mRAGE): binds
B1: C7-ABS-RAGE IgG (human IgG1) (antibody, V domains shown)
VH: EVQLVESGGGLVQPGGSLRLSCAASGFTFSSYWMSWVRQAPGKGLEWVASIDQDGSNKYYPDSVKGRFTISRDNAKNSLYLQMNSLRAEDTAVYYCARGGDITTGLDYWGQGTLVTVSS
VL: DIQMTQSPSSLSASVGDRVTITCRASQSIGSYLNWYQQKPGKAPKLLIYRASSLASGVPSRFSGSGSGTDFTLTISSLQPEDFATYYCLEFDEHPLTFGGGTKVEIK
notes: Human IgG1 format
